Values of other authors, collected in article PMC5023690.

Experiments:
[1] = target: ONE-GC M836-C1110 (Rattus norvegicus) (UniProt P51839); test: SPR
[2] = target: ONE-GC M836-C1110 (Rattus norvegicus) (UniProt P51839); test: SPR; given as Ka

Chain of UniProt P51839 (P51839 836-1110): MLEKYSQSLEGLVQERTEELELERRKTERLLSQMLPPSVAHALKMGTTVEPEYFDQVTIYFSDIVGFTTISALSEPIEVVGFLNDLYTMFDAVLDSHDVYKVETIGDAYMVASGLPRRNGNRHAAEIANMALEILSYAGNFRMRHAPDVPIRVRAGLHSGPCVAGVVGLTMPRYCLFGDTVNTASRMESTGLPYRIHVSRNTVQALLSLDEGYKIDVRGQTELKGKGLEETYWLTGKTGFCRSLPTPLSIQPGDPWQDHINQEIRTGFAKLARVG

## Frq (frequenin) (from UniProt P62166)
[1]
  Kd: 0.43 µM
[2]
  Kd: 0.426 µM
